Experimental data published in IntAct's records for PubMed 31515488.

B1: Tektin-4 (Homo sapiens), Q8WW24 (parent)
chain: MAQTVPPCELPCKEYDVARNTGAYTSSGLATASFRTSKYLLEEWFQNCYARYHQAFADRDQSERQRHESQQLATETQALAQRTQQDSTRTVGERLQDTHSWKSELQREMEALAAETNLLLAQKQRLERALDATEVPFSITTDNLQCRERREHPNLVRDHVETELLKEAELIRNIQELLKRTIMQAVSQIRLNREHKETCEMDWSDKMEAYNIDETCGRHHSQSTEVQAHPYSTTFQESASTPETRAKFTQDNLCRAQRERLASANLRVLVDCILRDTSEDLRLQCDAVNLAFGRRCEELEDARYKLHHHLHKTLREITDQEHNVAALKQAIKDKEAPLHVAQTRLYLRSHRPNMELCRDAAQFRLLSEVEELNMSLTALREKLLEAEQSLRNLEDIHMSLEKDIAAMTNSLFIDRQKCMAHRTRYPTILQLAGYQ
B2: Melanoma-associated antigen 4 (Homo sapiens), P43358 (parent)
chain: MSSEQKSQHCKPEEGVEAQEEALGLVGAQAPTTEEQEAAVSSSSPLVPGTLEEVPAAESAGPPQSPQGASALPTTISFTCWRQPNEGSSSQEEEGPSTSPDAESLFREALSNKVDELAHFLLRKYRAKELVTKAEMLERVIKNYKRCFPVIFGKASESLKMIFGIDVKEVDPASNTYTLVTCLGLSYDGLLGNNQIFPKTGLLIIVLGTIAMEGDSASEEEIWEELGVMGVYDGREHTVYGEPRKLLTQDWVQENYLEYRQVPGSNPARYEFLWGPRALAETSYVKVLEHVVRVNARVRIAYPSLREAALLEEEEGV
partner: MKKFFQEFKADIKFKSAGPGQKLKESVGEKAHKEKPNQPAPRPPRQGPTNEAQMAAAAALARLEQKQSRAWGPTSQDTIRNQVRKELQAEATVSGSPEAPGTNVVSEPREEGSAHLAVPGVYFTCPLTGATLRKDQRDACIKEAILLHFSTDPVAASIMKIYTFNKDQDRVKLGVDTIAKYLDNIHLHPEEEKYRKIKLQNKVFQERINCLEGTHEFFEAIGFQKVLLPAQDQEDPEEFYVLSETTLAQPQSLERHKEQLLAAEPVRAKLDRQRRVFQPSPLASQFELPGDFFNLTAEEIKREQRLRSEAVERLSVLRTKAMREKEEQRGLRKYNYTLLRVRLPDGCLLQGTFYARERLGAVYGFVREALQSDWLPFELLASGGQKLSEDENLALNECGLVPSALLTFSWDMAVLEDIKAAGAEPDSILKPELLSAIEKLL
B3: Zinc finger protein 488 (Homo sapiens), Q96MN9 (parent)
chain: MPEWPPCLSVAPALVITMAAGKGAPLSPSAENRWRLSEPELGRGCKPVLLEKTNRLGPEAAVGRAGRDVGSAELALLVAPGKPRPGKPLPPKTRGEQRQSAFTELPRMKDRQVDAQAQEREHDDPTGQPGAPQLTQNIPRGPAGSKVFSVWPSGARSEQRSAFSKPTKRPAERPELTSVFPAGESADALGELSGLLNTTDLACWGRLSTPKLLVGDLWNLQALPQNAPLCSTFLGAPTLWLEHTQAQVPPPSSSSTTSWALLPPTLTSLGLSTQNWCAKCNLSFRLTSDLVFHMRSHHKKEHAGPDPHSQKRREEALACPVCQEHFRERHHLSRHMTSHS
B4: Protein DBF4 homolog B (Homo sapiens), Q8NFT6 (parent)
chain: MSEPGKGDDCLELESSMAESRLRAPDLGVSRCLGKCQKNSPGARKHPFSGKSFYLDLPAGKNLQFLTGAIQQLGGVIEGFLSKEVSYIVSSRREVKAESSGKSHRGCPSPSPSEVRVETSAMVDPKGSHPRPSRKPVDSVPLSRGKELLQKAIRNQGSISGGGSGGSSSLLTNARSWGVRILHVDEMMMHVQQLSLASLCVKKQQPKKPEGTCPAAESRTRKVARLKAPFLKIEDESRKFRPFHHQFKSFPEISFLGPKDASPFEAPTTLGSMHHTRESKDGEPSPRSAAHTMPRRKKGYCECCQEAFEELHVHLQSAQHRSFALEAHLYAEVDRIIAQLSHSFADIPFQAGLPRWSGSPASDCDPLCPETLHPHQPSHPRAASPRIRKEDSCQASVTQGRAAGQQRWTESLDGVMGPPASHTCVSATTLLPALPKGSREQGCLCPCPASFTQSHLVTSLALLPGEWSPAEDMPLHPSQENSFAPADIPVKGPLLFPEARPWLMSARCWVRPFPFVTWGCLIPHDTTPLHEEVSPCPCLRLGYLYLLLTQSLWCRVRVPSLSTAGPIPRTSHPCTLAFPSYLNDHDLGHLCQAKPQGWNTPQPFLHCGFLAVDSG
partner: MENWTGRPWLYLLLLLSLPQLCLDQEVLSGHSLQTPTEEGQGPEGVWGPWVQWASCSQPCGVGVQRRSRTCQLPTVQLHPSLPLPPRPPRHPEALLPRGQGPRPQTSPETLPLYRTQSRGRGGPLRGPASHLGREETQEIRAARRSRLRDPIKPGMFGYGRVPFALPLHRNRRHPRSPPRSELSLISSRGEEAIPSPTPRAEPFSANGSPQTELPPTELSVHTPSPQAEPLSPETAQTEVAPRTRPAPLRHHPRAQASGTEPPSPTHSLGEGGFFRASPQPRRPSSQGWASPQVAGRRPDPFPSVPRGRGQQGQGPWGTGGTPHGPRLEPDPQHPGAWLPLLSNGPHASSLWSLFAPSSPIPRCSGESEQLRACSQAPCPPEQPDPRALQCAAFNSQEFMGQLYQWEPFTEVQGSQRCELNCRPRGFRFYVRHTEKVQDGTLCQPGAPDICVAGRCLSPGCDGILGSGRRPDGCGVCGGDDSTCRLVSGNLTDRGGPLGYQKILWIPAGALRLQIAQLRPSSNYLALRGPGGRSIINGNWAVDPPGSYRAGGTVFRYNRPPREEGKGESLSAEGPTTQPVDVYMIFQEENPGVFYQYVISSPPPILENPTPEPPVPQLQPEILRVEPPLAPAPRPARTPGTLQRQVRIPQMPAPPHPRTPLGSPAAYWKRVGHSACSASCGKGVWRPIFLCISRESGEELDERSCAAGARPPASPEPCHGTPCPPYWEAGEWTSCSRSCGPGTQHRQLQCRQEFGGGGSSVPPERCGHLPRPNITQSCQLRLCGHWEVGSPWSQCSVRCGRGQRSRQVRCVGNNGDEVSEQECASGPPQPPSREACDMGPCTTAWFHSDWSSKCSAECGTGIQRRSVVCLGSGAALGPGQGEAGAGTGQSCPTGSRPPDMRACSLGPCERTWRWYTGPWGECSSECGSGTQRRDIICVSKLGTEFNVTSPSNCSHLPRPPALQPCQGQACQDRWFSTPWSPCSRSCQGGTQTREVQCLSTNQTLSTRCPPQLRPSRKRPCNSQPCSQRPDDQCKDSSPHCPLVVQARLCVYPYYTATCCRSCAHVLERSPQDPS
B5: Ras-related protein Rab-4A (Homo sapiens), P20338 (parent)
chain: MSQTAMSETYDFLFKFLVIGNAGTGKSCLLHQFIEKKFKDDSNHTIGVEFGSKIINVGGKYVKLQIWDTAGQERFRSVTRSYYRGAAGALLVYDITSRETYNALTNWLTDARMLASQNIVIILCGNKKDLDADREVTFLEASRFAQENELMFLETSALTGENVEEAFVQCARKILNKIESGELDPERMGSGIQYGDAALRQLRSPRRAQAPNAQECGC
partner: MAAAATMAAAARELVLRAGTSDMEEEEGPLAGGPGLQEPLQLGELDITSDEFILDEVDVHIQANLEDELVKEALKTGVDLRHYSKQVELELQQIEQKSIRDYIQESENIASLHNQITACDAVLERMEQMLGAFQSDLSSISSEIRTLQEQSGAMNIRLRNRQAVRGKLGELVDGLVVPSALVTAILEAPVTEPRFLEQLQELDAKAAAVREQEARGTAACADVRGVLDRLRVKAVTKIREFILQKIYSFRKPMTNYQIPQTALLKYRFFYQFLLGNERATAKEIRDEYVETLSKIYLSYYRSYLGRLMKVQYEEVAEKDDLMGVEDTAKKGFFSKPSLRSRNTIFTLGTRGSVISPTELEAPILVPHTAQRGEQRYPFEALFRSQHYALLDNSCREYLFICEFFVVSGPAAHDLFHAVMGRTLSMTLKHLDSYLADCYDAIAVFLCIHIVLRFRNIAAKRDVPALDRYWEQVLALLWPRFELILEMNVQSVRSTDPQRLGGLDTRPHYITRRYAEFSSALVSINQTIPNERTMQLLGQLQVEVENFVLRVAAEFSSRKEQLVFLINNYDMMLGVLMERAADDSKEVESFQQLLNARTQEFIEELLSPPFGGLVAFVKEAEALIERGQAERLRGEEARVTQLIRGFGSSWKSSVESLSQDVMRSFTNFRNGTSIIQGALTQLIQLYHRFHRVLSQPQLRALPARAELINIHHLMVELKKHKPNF

Variants of: B1
Conditions: with trip6_human TRIP6, Q15654
trip6_human TRIP6, Q15654, sequence (Q15654 whole entry): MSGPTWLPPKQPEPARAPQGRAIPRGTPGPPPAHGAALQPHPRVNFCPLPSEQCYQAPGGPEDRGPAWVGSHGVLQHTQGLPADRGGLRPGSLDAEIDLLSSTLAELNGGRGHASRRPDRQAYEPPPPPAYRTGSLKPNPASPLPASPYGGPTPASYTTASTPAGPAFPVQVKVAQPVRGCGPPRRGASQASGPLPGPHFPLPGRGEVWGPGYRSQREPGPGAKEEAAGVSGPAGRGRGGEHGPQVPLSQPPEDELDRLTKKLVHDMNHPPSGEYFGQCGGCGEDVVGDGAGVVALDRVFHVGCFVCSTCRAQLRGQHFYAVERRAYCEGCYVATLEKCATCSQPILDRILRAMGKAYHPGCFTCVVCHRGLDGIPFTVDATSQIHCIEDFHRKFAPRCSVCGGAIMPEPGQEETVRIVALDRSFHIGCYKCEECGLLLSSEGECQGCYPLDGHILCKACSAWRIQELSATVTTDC

| effect of a mutation on the interaction | Variant |
| --- | --- |
| with no effect | S100G |
| with no effect | R64W |

Variants of: B1
Conditions: with maga4_human MAGEA4, P43358

| effect of a mutation on the interaction | Variant |
| --- | --- |
| with no effect | S100G |
| with no effect | R64W |

Variants of: B1
Conditions: with atg5_human ATG5, Q9H1Y0
atg5_human ATG5, Q9H1Y0, sequence (Q9H1Y0 whole entry): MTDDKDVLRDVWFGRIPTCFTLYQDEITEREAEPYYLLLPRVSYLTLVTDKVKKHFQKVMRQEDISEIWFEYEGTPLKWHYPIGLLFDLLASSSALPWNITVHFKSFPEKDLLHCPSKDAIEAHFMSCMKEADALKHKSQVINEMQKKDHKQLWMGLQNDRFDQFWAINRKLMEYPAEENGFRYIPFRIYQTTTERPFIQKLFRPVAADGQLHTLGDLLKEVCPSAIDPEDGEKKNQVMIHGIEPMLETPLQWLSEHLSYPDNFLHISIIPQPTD

| effect of a mutation on the interaction | Variant |
| --- | --- |
| with no effect | S100G |
| disrupting interaction strength | I404T |
| with no effect | D403N |

Variants of: B2
Conditions: with ubxn6_human UBXN6, Q9BZV1

| effect of a mutation on the interaction | Variant |
| --- | --- |
| with no effect | S41F |

Variants of: B3
Conditions: with rbpms_human RBPMS

| effect of a mutation on the interaction | Variant |
| --- | --- |
| with no effect | C230R |
| with no effect | A72V |

Variants of: B4
Conditions: with atl4_human ADAMTSL4, Q6UY14

| effect of a mutation on the interaction | Variant |
| --- | --- |
| with no effect | L199S |

Variants of: B5
Conditions: with vps52_human VPS52, Q8N1B4

| effect of a mutation on the interaction | Variant |
| --- | --- |
| with no effect | R207H |
